From the RNAGym collection of RNA variant scans (doi:10.1093/molbev/msab373) come the findings set out here.

B1: Azoarcus group I ribozyme (parent)
chain: GUGCCUUGCGCCGGGAAACCACGCAAGGGAUGGUGUCAAAUUCGGCGAAACCUAAGCGCCCGCCCGGGCGUAUGGCAACGCCGAGCCAAGCUUCGGCGCCUGCGCCGAUGAAGGUGUAGAGACUAGACGGCACCCACCUAAGGCAAACGCUAUGGUGAAGGCAUAGUCCAGGGAGUGGCGAAAGUCACACAAACCGG

The variants in this series derive from B1. Briefly: reverse-splicing fitness (ratio to wild type); higher = more active; in vitro selection; Mg2+ level not given. Put shortly:
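An in vitro group I ribozyme library with randomized positions was T7-transcribed and gel-purified. In triplicate, 10 pmol RNA in EPPS pH 7.5 was reacted with 50 pmoles of a 30-nt RNA substrate for 1 h at 37 °C across several added MgCl2 levels (1–48 mM), then stopped with EDTA. Products were reverse transcribed from a substrate-complementary primer, PCR-amplified and sequenced (HiSeq 4000). Fitness is a variant's read proportion after selection over that before, normalised to wild type.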
GUGCCUUGCGCCGGGAAACCACGCAAGGGAUGGUGUCAAAUUCGGCGAAACCUAAGCGCCCGCCCGGGCGUAUGGCAACGCGGAGCCAAGCUUCGGCGCCUGCGCCGAUGUAGGUGUAGAGACUAGACGGCACCCACCUAAGGCUAACGCUAUGGUGAAGGCAUAGUCGAGGGAGCGGCGAAAGUCACACAAACCGG: the reverse-splicing fitness is 0.0128.
For GUGCCUUGCGCCGGGAAACCACGCAAGGGAUGGUGUCAAAUUCGGCGAAACCUAAGCGCCCGCCCGGGCGUAUGGCAACGCUGAGCCAAGCUUCGGCGCCUGCGCCGAUGGAGGUGUAGGGACUAGACGGCACCCACCUAAGGCAAACGAUAUGGUGAAGGCAUAGUCAAGGGAGGGGCGAAAGUCACACAAACCGG, the reverse-splicing fitness is 0.00577.
The value for GUGCCUUGCGCCGGGAAACCACGCAAGGGAUGGUGUCAAAUUCGGCGAAACCUAAGCGCCCGCCCGGGCGUAUGGCAACGCUGAGCCAAGCUUCGGCGCCUGCGCCGAUGCAGGUGUAGUGACUAGACGGCACCCACCUAAGGCGAACGGUAUGGUGAAGGCAUAGUCAAGGGAGUGGCGAAAGUCACACAAACCGG was 0.00772; that for GUGCCUUGCGCCGGGAAACCACGCAAGGGAUGGUGUCAAAUUCGGCGAAACCUAAGCGCCCGCCCGGGCGUAUGGCAACGCGGAGCCAAGCUUCGGCGCCUGCGCCGAUGAAGGUGUAGCGACUAGACGGCACCCACCUAAGGCCAACGAUAUGGUGAAGGCAUAGUCGAGGGAGCGGCGAAAGUCACACAAACCGG was 0.0164; that for GUGCCUUGCGCCGGGAAACCACGCAAGGGAUGGUGUCAAAUUCGGCGAAACCUAAGCGCCCGCCCGGGCGUAUGGCAACGCUGAGCCAAGCUUCGGCGCCUGCGCCGAUGCAGGUGUAGCGACUAGACGGCACCCACCUAAGGCCAACGGUAUGGUGAAGGCAUAGUCUAGGGAGGGGCGAAAGUCACACAAACCGG was 0.00551.
Consider GUGCCUUGCGCCGGGAAACCACGCAAGGGAUGGUGUCAAAUUCGGCGAAACCUAAGCGCCCGCCCGGGCGUAUGGCAACGCUGAGCCAAGCUUCGGCGCCUGCGCCGAUGUAGGUGUAGCGACUAGACGGCACCCACCUAAGGCAAACGAUAUGGUGAAGGCAUAGUCGAGGGAGUGGCGAAAGUCACACAAACCGG, for which the reverse-splicing fitness worked out at 0.0083.
As to GUGCCUUGCGCCGGGAAACCACGCAAGGGAUGGUGUCAAAUUCGGCGAAACCUAAGCGCCCGCCCGGGCGUAUGGCAACGCGGAGCCAAGCUUCGGCGCCUGCGCCGAUGGAGGUGUAGUGACUAGACGGCACCCACCUAAGGCCAACGGUAUGGUGAAGGCAUAGUCUAGGGAGGGGCGAAAGUCACACAAACCGG, the reverse-splicing fitness was 0.00221.
Turning to GUGCCUUGCGCCGGGAAACCACGCAAGGGAUGGUGUCAAAUUCGGCGAAACCUAAGCGCCCGCCCGGGCGUAUGGCAACGCGGAGCCAAGCUUCGGCGCCUGCGCCGAUGAAGGUGUAGCGACUAGACGGCACCCACCUAAGGCGAACGGUAUGGUGAAGGCAUAGUCUAGGGAGUGGCGAAAGUCACACAAACCGG, the reverse-splicing fitness was determined as 0.0121.
Regarding GUGCCUUGCGCCGGGAAACCACGCAAGGGAUGGUGUCAAAUUCGGCGAAACCUAAGCGCCCGCCCGGGCGUAUGGCAACGCUGAGCCAAGCUUCGGCGCCUGCGCCGAUGGAGGUGUAGUGACUAGACGGCACCCACCUAAGGCGAACGAUAUGGUGAAGGCAUAGUCGAGGGAGGGGCGAAAGUCACACAAACCGG, the reverse-splicing fitness is 0.00221.
Consider GUGCCUUGCGCCGGGAAACCACGCAAGGGAUGGUGUCAAAUUCGGCGAAACCUAAGCGCCCGCCCGGGCGUAUGGCAACGCAGAGCCAAGCUUCGGCGCCUGCGCCGAUGAAGGUGUAGGGACUAGACGGCACCCACCUAAGGCGAACGCUAUGGUGAAGGCAUAGUCUAGGGAGUGGCGAAAGUCACACAAACCGG, for which the reverse-splicing fitness was 0.0148.
Regarding GUGCCUUGCGCCGGGAAACCACGCAAGGGAUGGUGUCAAAUUCGGCGAAACCUAAGCGCCCGCCCGGGCGUAUGGCAACGCGGAGCCAAGCUUCGGCGCCUGCGCCGAUGGAGGUGUAGUGACUAGACGGCACCCACCUAAGGCAAACGAUAUGGUGAAGGCAUAGUCGAGGGAGGGGCGAAAGUCACACAAACCGG, the reverse-splicing fitness was 0.00187.
Consider GUGCCUUGCGCCGGGAAACCACGCAAGGGAUGGUGUCAAAUUCGGCGAAACCUAAGCGCCCGCCCGGGCGUAUGGCAACGCUGAGCCAAGCUUCGGCGCCUGCGCCGAUGAAGGUGUAGGGACUAGACGGCACCCACCUAAGGCUAACGCUAUGGUGAAGGCAUAGUCUAGGGAGGGGCGAAAGUCACACAAACCGG, for which the reverse-splicing fitness came out at 0.00326.
Take GUGCCUUGCGCCGGGAAACCACGCAAGGGAUGGUGUCAAAUUCGGCGAAACCUAAGCGCCCGCCCGGGCGUAUGGCAACGCGGAGCCAAGCUUCGGCGCCUGCGCCGAUGCAGGUGUAGCGACUAGACGGCACCCACCUAAGGCCAACGGUAUGGUGAAGGCAUAGUCGAGGGAGCGGCGAAAGUCACACAAACCGG: the reverse-splicing fitness amounted to 0.00983.
Take GUGCCUUGCGCCGGGAAACCACGCAAGGGAUGGUGUCAAAUUCGGCGAAACCUAAGCGCCCGCCCGGGCGUAUGGCAACGCAGAGCCAAGCUUCGGCGCCUGCGCCGAUGCAGGUGUAGAGACUAGACGGCACCCACCUAAGGCCAACGAUAUGGUGAAGGCAUAGUCGAGGGAGCGGCGAAAGUCACACAAACCGG: the reverse-splicing fitness came to 0.0219.
The value for GUGCCUUGCGCCGGGAAACCACGCAAGGGAUGGUGUCAAAUUCGGCGAAACCUAAGCGCCCGCCCGGGCGUAUGGCAACGCCGAGCCAAGCUUCGGCGCCUGCGCCGAUGAAGGUGUAGGGACUAGACGGCACCCACCUAAGGCAAACGAUAUGGUGAAGGCAUAGUCCAGGGAGCGGCGAAAGUCACACAAACCGG was 0.058.
